From patent US20240317865A1, “ANTIBODIES AGAINST INTEGRIN ALPHA 11 BETA 1” (MOMENTA PHARMACEUTICALS, INC., priority 2020, published 2024)
Entries after “also recorded” stand apart in the source; their conditions may differ.

T1: α11β1 I Domain (Homo sapiens, UniProt Q9UKX5)
T1 sequence (Q9UKX5 164-345 limits assumed): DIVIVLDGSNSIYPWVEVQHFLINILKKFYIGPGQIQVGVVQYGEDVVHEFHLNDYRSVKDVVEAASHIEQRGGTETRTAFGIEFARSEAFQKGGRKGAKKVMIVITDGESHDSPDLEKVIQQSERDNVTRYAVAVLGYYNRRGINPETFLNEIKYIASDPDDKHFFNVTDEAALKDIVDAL

T2: adhesion of CHO-K1 cells expressing human α11 to rat tail type I collagen (Homo sapiens, UniProt Q9UKX5)
T2 construct: expressed in transfected cells; host or cells: CHO-K1
T2 sequence (Q9UKX5 23-1188): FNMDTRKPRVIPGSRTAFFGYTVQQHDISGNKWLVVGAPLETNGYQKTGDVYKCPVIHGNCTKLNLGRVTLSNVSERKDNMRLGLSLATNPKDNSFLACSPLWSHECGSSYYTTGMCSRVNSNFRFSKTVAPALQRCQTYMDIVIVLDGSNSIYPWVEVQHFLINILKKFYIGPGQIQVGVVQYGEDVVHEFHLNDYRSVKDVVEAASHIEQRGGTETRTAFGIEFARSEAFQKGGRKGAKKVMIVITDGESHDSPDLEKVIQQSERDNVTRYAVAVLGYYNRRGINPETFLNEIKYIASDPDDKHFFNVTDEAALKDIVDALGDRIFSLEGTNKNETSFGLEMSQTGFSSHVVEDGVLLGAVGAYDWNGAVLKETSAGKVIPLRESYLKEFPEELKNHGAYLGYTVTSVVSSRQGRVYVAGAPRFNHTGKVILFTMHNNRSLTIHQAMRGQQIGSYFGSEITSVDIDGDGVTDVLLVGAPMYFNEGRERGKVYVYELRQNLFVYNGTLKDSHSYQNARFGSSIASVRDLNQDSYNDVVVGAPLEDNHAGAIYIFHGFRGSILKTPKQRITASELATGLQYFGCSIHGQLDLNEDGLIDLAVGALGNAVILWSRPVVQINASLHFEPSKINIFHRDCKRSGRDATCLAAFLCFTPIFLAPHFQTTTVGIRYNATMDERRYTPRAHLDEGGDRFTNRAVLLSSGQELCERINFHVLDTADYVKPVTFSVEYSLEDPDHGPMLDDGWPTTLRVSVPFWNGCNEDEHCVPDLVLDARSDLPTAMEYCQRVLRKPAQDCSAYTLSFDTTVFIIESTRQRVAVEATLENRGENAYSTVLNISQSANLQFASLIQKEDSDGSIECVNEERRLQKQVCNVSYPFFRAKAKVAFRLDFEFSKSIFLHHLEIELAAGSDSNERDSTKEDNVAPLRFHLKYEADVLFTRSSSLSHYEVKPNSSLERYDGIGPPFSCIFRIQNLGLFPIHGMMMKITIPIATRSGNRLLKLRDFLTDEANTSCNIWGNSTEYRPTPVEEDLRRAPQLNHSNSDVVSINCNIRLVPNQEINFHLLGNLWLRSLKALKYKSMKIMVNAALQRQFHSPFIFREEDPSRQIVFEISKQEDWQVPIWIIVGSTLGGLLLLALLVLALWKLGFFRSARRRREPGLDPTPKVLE

B1: 16E10: rabbit anti-α11β1 mAb; heavy chain SEQ ID NO: 161, light chain SEQ ID NO: 162 (antibody)
heavy: METGLRWLLLVAVLKGVQCQSLEESGGDLVKPGASLTLTCRVSGFSFSSSYYMCWVRQAPGKGLEWIACIGTTRGSTYYATWAKGRFTISKISSTTVTLQMTSLTDADTATYFCARDATGYRINTIGLYFNLWGPGTLVTVSSGQPKAPSVFPLAPCCGDTPSSTVTLGCLVKGYLPEPVTVTWNSGTLTNGVRTFPSVRQSSGLYSLSSVVSVTSSSQPVTCNVAHPATNTKVDKTVAPSTCSKPMCPPPELPGGPSVFIFPPKPKDTLMISRTPEVTCVVVDVSQDDPEVQFTWYINNEQVRTARPPLREQQFNSTIRVVSTLPIAHQDWLRGKEFKCKVHNKALPAPIEKTISKARGQPLEPKVYTMGPPREELSSRSVSLTCMINGFYPSDISVEWEKNGKAEDNYKTTPTVLDSDGSYFLYSKLSVPTSEWQRGDVFTCSVMHEALHNHYTQKSISRSPGK
light: MDTRAPTQLLGLLLLWLPGARCAFELTQTPSSVEAAVGGTPTIKCQASQTIYSYLSWYQQKPGQPPKLLIYEASKLASGVPSRFSGSGSGTDYTLTISDLECADAATYYCQSYHGTASTEYNTFGGGTEVVVRGDPVAPTVLIFPPAADQVATGTVTIVCVANKYFPDVTVTWEVDGTTQTTGIENSKTPQNSADCTYNLSSTLTLTSTQYNSHKEYTCKVTQGTTSVVQSFNRGDC
B2: 9-G05: mouse anti-α11β1 mAb; VH SEQ ID NO: 103, VL SEQ ID NO: 104 (antibody, V domains shown)
VH: EVQLQQSGPELVKPGASVKIPCKASGYTFPDYNMDWVKQSHGKSLEWIGYINPDNGGTIYNQKFKGKATLTVDKSSSTAYMELRSLTSEDTAVYYCARLDSSGYGYYAMDYWGQGTSVTVSS
VL: DIVLTQSPASLAVSLGQRATISCRASESVDNYGISFMHWYQQKPGQPPKLLIYRASNLDSEIPARFSGSGSRTDFTLTIDPVETDDVATYYCQQSYKDPRTFGGGTKLEIK
B3: 79E3E3: rat anti-α11β1 mAb; VH SEQ ID NO: 145, VL SEQ ID NO: 146 (antibody, V domains shown)
VH: MDWLWNLLFLMVVAQSAQAQIQLVQSGPEVKKPGESVKISCKASGYTFTDYAMNWVKQAPGNGLKWMGWINTQTGKPTYADDFKQRFVFSLETSARTTYLQINNLNIEDTATYFCTRLGTGNTKGFAYWGQGTLVTVSS
VL: MESQTHVLISLLLCVSGTCGDILINQSPASLTVSAGERVTMSCKSSQSLLYSENNQDYLAWYQQKPGQFPKLLIYGASNRHTGVPDRFTGSGSGTDFTLTISSVQAEDLADYYCEQTYRYPFTFGSGTKLEIK

Key:
[1] = system: CHO-K1 human α11-mediated rat tail type I collagen gel contraction; assay: Collagen gel contraction assay; format: cell-based; conditions: compared to untreated condition
Procedure: 24-well plates were blocked with 2% BSA in PBS overnight at 37° C. The following day, the plates were washed 3 times with PBS before being used in the assay. Human CHO cell lines expressing α11 were harvested and resuspended at 1.25×10^6 in ExpiCHO Expression Medium (Gibco™ Cat #A2910002). The collagen gel solution was prepared by diluting 3 mg/mL stock collagen type I (Gibco™ Collagen I Rat Protein, Tail Cat #A1048301) to 1 mg/mL in the media containing the CHO cells. Sodium hydroxide was added to the solution to neutralize the pH and 400 μL of the collagen solution was added to each well of the 24-well plates. For the wells where the antibodies were included in the collagen gel solution, CHO cells were prepared at 2.5×10^6 and the antibodies were prepared at 2× final concentration in ExpiCHO media. The cells and antibodies were then combined 1:1 before the addition of the stock collagen type 1. The gels were allowed to polymerize for 60 minutes at 37° C. Antibodies were added to the ExpiCHO media, which was then layered on top of the polymerized gel (400 μL/well). The gels were incubated for 6 days at 37° C. before gel contraction was quantified. Images of each well were analyzed using Image J and gel contraction was determined as a percentage of the initial gel area.
Selected exemplary antibodies were tested for the ability to inhibit cell-mediated 3D gel contraction because this ability is directly linked to the functionality of the exemplary antibodies.

[2] = system: α11β1 Headpiece; assay: SPR binding to α11β1 Headpiece; parameters: species or system human; conditions: in words
Procedure: (§1) The affinity of antibodies for human α11β1 was measured by surface plasmon resonance assay (SPR). Affinity was measured at pH 7.6 and 25° C. with a Biacore T200 instrument. Anti-HIS antibody was immobilized on the SPR sensor surface using EDC/NHS covalent attachment. HIS-tagged human α11β1 was captured on the sensor surface and a single-cycle kinetics assay was used. Increasing concentrations of test antibody were injected in series over the sensor-bound α11β1. Dissociation was monitored for 1000 seconds. A sensor surface with only anti-HIS antibody and a series of blank injections were used to double-reference subtract the data. A 1:1 Langmuir model was fit to the data to estimate the kinetic association and dissociation constants. The affinity (equilibrium dissociation constant) of the interaction was calculated by dividing the kinetic dissociation constant by the kinetic association constant. Between injection cycles α11β1 and bound antibody were removed with an injection of 10 mM glycine at pH 1.5.
(§2) The binding affinity of antibodies for the α11β1 Headpiece and α11β1 I Domain as measured by SPR is shown in FIG. 10A and FIG. 10B, respectively.

[3] = system: A549 cell xenografts; assay: Tumor xenograft model; format: in vivo, C.B-17 SCID mice; conditions: A549 xenograft, SCID mice
Procedure: Fifty-six female C.B-17 SCID mice were inoculated with A549 cells (5×10^6 cells/mouse) subcutaneously in the flank. Once tumor volume reached ˜100 mm^3, animals were randomized amongst 7 groups of 8 mice each. Mice were then treated intraperitonealy every 3 days for a total of 7 doses with isotype controls or novel mAbs 79E3E3, 16E10 and 9G04 (2 and 20 mg/kg) or with docetaxel at 10 mg/kg every 4 days for a total of 6 doses. Tumor volumes and body weights were recorded twice a week with a gap of 2-3 days in between two measurements until any of the following conditions defined were observed: loss of 20% or more body weight; tumors that inhibit normal physiological function such as eating, drinking, and mobility; ulcerated tumors; tumor size greater than 2000 mm^3 and clinical observations of prostration, paralysis, seizures and hemorrhages.
In this example, studies were performed to determine if inhibition of α11β1 function with mAb results in xenograft growth inhibition. As shown in FIG. 16 and Table 4, blocking α11β1 on mouse CAFs impeded xenograft growth in SCID mice.

[4] = molecular target: T1, α11β1 I Domain; assay: SPR binding to α11β1 I Domain; conditions: in words
Procedure: as §1, §2

[5] = molecular target: T2, adhesion of CHO-K1 cells expressing human α11 to rat tail type I collagen; assay: Cell adhesion inhibition (CHO-K1 hu α11 cells to type I collagen, xCelligence); format: cell-based; conditions: in words
Procedure: 0.6×10^6 cells/mL were incubated with each antibody at a range of concentrations for 20 minutes at 37° C. E-Plate VIEW 96 PET plate coated with 100 ng/ml type I collagen or PBS overnight at room temperature was blocked in 3% BSA for 1 house at room temperature. After washing the plate with PBS, cell and antibody mixture was added to the wells and the plate was places into an xCelligence machine. Cell adhesion was recorded over 6 hours. The time point of maximum cell adhesion was used for comparison relative to control.
A CHO-K1 hu α11 cell line was used to assess the ability of mAbs to block α11β1-mediated binding to type I collagen. […] In the “Untreated” condition, cells were plated on type I collagen but no antibody was added and in the “Uncoated” condition, cells were seeded onto BSA-coated wells containing no type I collagen. Statistics were performed using one-way ANOVA followed by Dunnett's multiple comparisons test. […] Therefore, it is possible that these mAbs bind on an α11β1 domain that keeps the integrin in a low or intermediate affinity state. […] Nine human mAbs were also tested for their ability to inhibit the binding of human CHO-α11 cells to type I collagen.

[6] = molecular target: T1, α11β1 I Domain; assay: ELISA binding to in-house generated α11β1 I domain; parameters: An in-house generated I domain of α11β1 was used; made in house; conditions: in words
Procedure: 0.25 μg/mL of target antigen (recombinant human or mouse α11β1) was plated in a 96-well plate over night at 4° C. Plates were washed (PBS with 0.1% Tween-20), blocked (PBS with 2% BSA and 0.05% Tween-20) for 1 hour at room temperature and incubated with a range of antibody concentrations for 1 hour at room temperature. Subsequently, plates were washed and incubated with biotinylated anti-rabbit/mouse/human IgG in a 1:1000 dilution buffer and incubated for 1 hour at room temperature. After washing the plates, Streptavidin HRP was added at 1:200 in dilution buffer and incubated for 1 hour at room temperature. Ultra TMB ELISA substrate solution was added and the plates incubated for 5 minutes on a plate shaker. The reaction was stopped by adding stop solution to each well and plates were read at 450 nm.
Data was also collected to determine whether antibodies of interest bind to the I domain of α11β1. An in-house generated I domain of α11β1 was used. […] Mouse antibodies 10-F23, 10-L15, 7-O8, 6-A12, 9-G05 and 9-E16 and rabbit antibodies 7-H12 and 2-D3 were also tested for binding against the in-house generated α11β1 I domain. FIGS. 3A and 3B show graphs illustrating binding data from exemplary mAbs.

Molecule | Inhibition of CHO-hu α11-mediated collagen gel contraction [1] | Binding to α11β1 headpiece domain (SPR) [2] | Tumor growth inhibition compared to isotype control [3] | Binding to α11β1 I domain (SPR) [4] | Inhibition of cell adhesion to type I collagen [5] | Binding to the I domain of α11β1 [6]
B1 | inhibited | do not bind | no significant inhibition of tumor growth | do not bind | – | –
B2 | inhibited | – | – | do bind | decrease cell adhesion to collagen | I-domain binders; also recorded: bound the I domain
B3 | inhibited | – | significantly inhibited tumor growth | do bind | – | high and I-domain binder
